Laboratory results taken from PMC10715145.

What was measured:
PacCZF-MBP [1] = molecular target: T1, PacCZF-MBP (Alternaria alternata (tangerine …, UniProt A0A177DU84 1-150)); assay: EMSA; […]; 28°C for 20 min; […]; buffer, […]; conditions: protein: recombinant; tags: MBP (pMAL-c5x); label: 3'-biotin; blunt
PacCZF-MBP [2] = molecular target: T1, PacCZF-MBP; assay: competition; excess unlabeled mutant vs labeled WT ACTT6 probe; […]; 28°C for 20 min; […]; buffer, […]; conditions: protein: recombinant; tags: MBP (pMAL-c5x); label: unlabeled; blunt

B1: ACTTR promoter WT probe (dsDNA)
DNA 1: ACGAACCACATCCTCGCCAAGGACATGAATGACACA
DNA 2: TGTGTCATTCATGTCCTTGGCGAGGATGTGGTTCGT
B1: binds (PacCZF-MBP [1]).

B2: ACTT6 promoter WT probe (dsDNA)
DNA 1: CGTGACTGACATCCCGCCAAGGCTAACCATCCGGGA
DNA 2: TCCCGGATGGTTAGCCTTGGCGGGATGTCAGTCACG
B2: binds (PacCZF-MBP [1]).

B3: ACTT6 promoter mutant competitor (dsDNA)
DNA 1: CGTGACTGACATCCCGAACCGGCTAACCATCCGGGA
DNA 2: TCCCGGATGGTTAGCCGGTTCGGGATGTCAGTCACG
B3: no binding (PacCZF-MBP [2]).
